Tests used:
[1] = target: AtCAD-H protein (cinnamyl alcohol dehydrogenase) (Arabidopsis thaliana, UniProt F4K152); experiment: Enzyme activity of purified AtCAD-H protein, backward reaction (Lineweaver-Burk); type: biochemical; conditions: substrate coniferyl alcohol, NADPH^+ in place of NADPH, Tris-HCl pH 9.3, 37° C.
Method: (§1) In order to identify whether the isolated protein has the cinnamyl alcohol dehydrogenase function related to lignin biosynthesis, the enzyme activity in forward reaction was measured using coniferaldehyde as a substrates. Also, the enzyme activity in backward reaction was measured using coniferyl alcohol as a substrates so as to identify whether the enzyme also involves in backward reaction or not.
(§2) The enzyme activities were measured at 405 nm using a microplate reader (Bio-rad Backman Microplate Reader) adjusted at 37° C. according to the method of Mitchell et al. (Mitchell et al. Planta, 208: 31-47, 1998). In […] of the reaction solution for the measurement of the enzyme activity in forward reaction, 100 mM Tris-buffer (Tris-HCl pH 9.3), […], and 2-3 μg of the protein purified in Example 2-2 were contained. The conditions of the reaction solution for the measurement of the enzyme activity in backward reaction is the same as that of the reaction solution of forward reaction, except that 100 mM NADPH^+ was contained in place of 100 mM NADPH. […]
(§3) Meanwhile, the enzyme activity of the purified protein was suitable for Michaelis-Menten kinetics for 100 mM coniferyl alcohol, that is, the substrate of backward reaction. The reaction velocities were measured according to variation of substrate concentration, and represented in a Lineweaver-Burk's plot (see FIG. 2b). […]

[2] = substrate: COc1cc(/C=C/C=O)ccc1O; experiment: Enzyme activity of purified AtCAD-H protein, forward reaction (Lineweaver-Burk); type: biochemical, Arabidopsis thaliana; conditions: other: forward reaction, substrate coniferaldehyde, NADPH, Tris-HCl pH 9.3, 37° C., 405 nm
Method: as §1, §2
The enzyme activity of the purified protein was suitable for Michaelis-Menten kinetics for 100 mM coniferaldehyde, that is, the substrate of forward reaction. The reaction velocities were measured according to variation of substrate concentration, and represented in a Lineweaver-Burk's plot (see FIG. 2a).

[3] = substrate: COc1cc(/C=C/CO)ccc1O; experiment: Enzyme activity of purified AtCAD-H protein, backward reaction (Lineweaver-Burk); type: biochemical, Arabidopsis thaliana; conditions: other: backward reaction, substrate coniferyl alcohol, NADPH^+ in place of NADPH, Tris-HCl pH 9.3, 37° C.
Method: as §1, §2, §3

Vmax [1] | Molecule | Km [2] [µM] | Km [3] [µM]
0.102 | COc1cc(/C=C/CO)ccc1O [coniferyl alcohol] |  | 
 | AtCAD-H protein (cinnamyl alcohol dehydrogenase) (Arabidopsis thaliana) (protein) MANSGEGKVVCVTGASGYIASWLVKFLLSRGYTVKASVRDPSDPKKTQHLVSLEGAKERLHLFKADLLEQGSFDSAIDGCHGVFHTASPFFNDAKDPQAELIDPAVKGTLNVLNSCAKASSVKRVVVTSSMAAVGYNGKPRTPDVTVDETWFSDPELCEASKMWYVLSKTLAEDAAWKLAKEKGLDIVTINPAMVIGPLLQPTLNTSAAAILNLINGAKTFPNLSFGWVNVKDVANAHIQAFEVPSANGRYCLVERVVHHSEIVNILRELYPNLPLPERCVDENPYVPTYQVSKDKTRSLGIDYIPLKVSIKETVESLKEKGFAQF | 19.8 | 374
